± gives the uncertainty stated by the source.
Assay: amyloid nucleation score (Sup35N fusion, yeast selection) (log enrichment); library NNK2; higher = more nucleation; inactive = no reads after selection
In short: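 The nucleation score equals the log enrichment of output over input reads from DiMSum, centred on the mode score of non-aggregating sequences. It was computed only for sequences with 100 or more input reads. The reads came from Illumina sequencing of plasmid inserts from psi-negative yeast expressing Sup35N fused to peptides of 20 random codons, induced with 100 μM copper sulfate for 24 hours and grown 7 days at 30°C without adenine and uracil.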

Row | Substance | amyloid nucleation score
1 | IFIVYILCFFMREIFAPI | 3.77 ± 0.11
2 | CFSCFIASGDT | 7.439 ± 0.026
3 | PMICEHAGHSGWH | 1.11 ± 0.22
4 | YLNSYNSC | -1.31 ± 1
5 | LAGFGMNFSFRFSVLTWGSV | 3.13 ± 0.09
6 | LWIGWSLKPKVDVRLCHWVK | 0.173 ± 1.1
7 | FSKIIHDSALVNISWMHDGS | 0.844 ± 0.56
8 | SLLGRRIFWLCHEFMSSSLV | 0.21 ± 1
9 | PSYFRNRIRLSRVGTNGYTR | -0.693 ± 1.1
10 | YMNSSLARISPRGSRCERQ | 0.162 ± 0.38
11 | VSFKTSGKLCTAWFVWGLF | -0.108 ± 0.34
12 | AREHPKY | 0.645 ± 0.14
13 | ASILMSRKTMGSNRHCSFVG | 0.345 ± 0.3
14 | TGRLSIVAKNYWGHSVRAFS | 0.001 ± 0.76
15 | EVSNRCRRLSTRRVHSVLVG | 1.13 ± 0.25
16 | LGKFEA | inactive
17 | NLQLTFGS | -0.202 ± 0.21
18 | TGPGSFFRRSGDTHLYSRDG | inactive
19 | IRNVSYDMGCELSHDMVRSR | 0.044 ± 1.1
20 | WWKGWARTNNVMRAFVVMFY | -0.655 ± 0.44
21 | PFLVLSWDRCN | -0.288 ± 1.1
22 | HNLNKTGDKRFYTLFVSSPR | 0.012 ± 1

Row | Substance | amyloid nucleation score
23 | MRCNFADSAYRMISMTV | 0.412 ± 0.55
24 | CTHNTSKVSKMVIVCPRFNL | 6.218 ± 0.035
25 | DIFIGNSVCGVYRMVNMYSY | inactive
26 | LNMVMLICNLWDVPHPRYLP | 5.14 ± 0.052
27 | EPNIGSVP | -0.171 ± 0.55
28 | GSWFPFWLSASMHGSCIYTR | -0.576 ± 0.44
29 | ASKSYIITSSCRASLTVSSL | inactive
30 | RYHDLGI | -0.093 ± 0.2
31 | CSAATSGYYMSQDRLSDTTT | -0.184 ± 1.1
32 | FNTCGSHRSGRRFL | inactive
33 | GNLGSHYALGPLDRATRGER | 0.632 ± 0.26
34 | NVRDYRIFDL | -0.877 ± 0.78
35 | SVFYHLYSHWIFIVCTNTRR | -0.414 ± 0.43
36 | SLVTISFLGLFGSSSALVVA | -0.114 ± 1.1
37 | TWGVLFAYSIEDCVGINYLG | 0.73 ± 0.18
38 | GYYMRLS | inactive
39 | FIERSSLEDNVSSALAISR | 0.704 ± 0.47
40 | GFHIGDVCNYGVVFSSVARL | 5.863 ± 0.05
41 | DTAHTNISECRAMVRMYRSR | -0.755 ± 1.1
42 | VWRTGRGYGRMWFLHISSMY | -0.207 ± 0.34
43 | TRPRVKPWAMFRNIYD | -1.33 ± 0.44
44 | IVHYGETNG | 0.494 ± 0.38

Row | Substance | amyloid nucleation score
45 | SNCFNCYLISNWKYVTVSLS | 6.23 ± 0.067
46 | NNLTKWLNHWRYFRFSSALE | -0.178 ± 0.5
47 | VSASEEVPAFCCVTVAQ | -0.195 ± 0.61
48 | YGFASFSLYDYYLLVCSMFI | inactive
49 | ASSFMSDGRT | 0.35 ± 0.56
50 | MNASDIKTFKL | -0.531 ± 1.1
51 | YKTIIRSVMSELSGSLRQSE | 1.26 ± 0.11
52 | EFRWGFRGVSYLKCTC | 1.2 ± 0.15
53 | TDLIINMSQNR | 2.42 ± 0.1
54 | TLASRTNF | inactive
55 | IRMNIFASSTR | 3.11 ± 0.073
56 | TGCVKGYSSRWWESFYGGTR | -0.762 ± 0.79
57 | FRWYFNVAATCGNRAPGRNV | 1.31 ± 0.18
58 | VRWFCSVISF | 2.39 ± 0.14
59 | DLTGGVRLRRWGWTSCSGNG | 0.404 ± 0.46
60 | FISSVIIGYSDPGVEGILLV | -0.922 ± 0.78
61 | VLYVGWFRAKDNIVFLTYGC | -0.158 ± 0.61
62 | NATLNNVERFRAFRGTFLDY | inactive
63 | NNKFLQVSYS | -0.409 ± 0.78
64 | TLGGSSTFRY | -0.152 ± 0.45
65 | ISMTL | 6.15 ± 0.081
66 | CCKMGRRDLRFLSDFVLCKL | inactive

Row | Substance | amyloid nucleation score
67 | VYGYDKISHFVHSMNSNIVW | inactive
68 | TIFFMGM | 3.65 ± 0.07
69 | CRVRYTGGY | 0.523 ± 0.35
70 | NLAFTNALVLLWNSVYLKDE | 8.274 ± 0.058
71 | VVLTAVHFQCLLTLTVPIEV | -0.158 ± 0.48
72 | NHRETVFVVIASRSWHARFG | -0.19 ± 1
73 | YFMSRRE | -0.04 ± 0.45
74 | GLERNRFGRQCLGWLLWNEA | 0.065 ± 1.1
75 | QIPVELNNVLNLYLVLCRIE | -0.459 ± 1.1
76 | GAVNFYHT | 4.06 ± 0.044
77 | LAAWLWYTWKG | 0.589 ± 0.66
78 | TFYYTAECWAWRNMQESSHT | 0.054 ± 0.32
79 | FLWHCYNFLKAGS | inactive
80 | DLVVELGESQQPWPLVRSRP | 0.6 ± 0.64
81 | GCLMVGINGCPIGPM | -1.11 ± 1.1
82 | FCMADVYSGTLRNNYHTSEV | -0.986 ± 0.31
83 | LFFDTCRIPRSYWSCLEEES | -0.206 ± 0.42
84 | NVLLKNLESPIFYRDMTTL | -0.252 ± 0.76
85 | TWMGVHVRSYHQHC | 0.878 ± 0.42
86 | HVYIGVNLKRENKTHQTSSV | 4.77 ± 0.064
